Laboratory results reported in patent publication US20240132579A1 (DOTBIO PTE, published 2024).

T1: Human VEGF-121 (Acro Biosystems) (human, UniProt P15692 207-395)
T1 construct: Bought protein; also called human VEGFA
T1 sequence: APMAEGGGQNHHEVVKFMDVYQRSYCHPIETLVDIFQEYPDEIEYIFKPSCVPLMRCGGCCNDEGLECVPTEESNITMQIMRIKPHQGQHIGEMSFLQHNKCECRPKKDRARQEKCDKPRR

T2: biotinylated murine VEGF-164 (Acro Biosystem) (mouse, UniProt Q00731-2 27-190, biotinylated (site not stated))
T2 construct: also called Mouse VEGF164; murine VEGFA
T2 sequence (looked up): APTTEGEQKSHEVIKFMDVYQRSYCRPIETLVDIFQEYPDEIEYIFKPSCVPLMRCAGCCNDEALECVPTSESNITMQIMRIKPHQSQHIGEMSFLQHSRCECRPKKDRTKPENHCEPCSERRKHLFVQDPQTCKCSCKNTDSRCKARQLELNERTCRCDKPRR


Columns and labels:
VEGFA = VEGFA (UniProt P15692-4 27-191, limits assumed); assay: method not stated
[1] = target: T1, Human VEGF-121 (Acro Biosystems); assay: competitive ELISA: inhibition of 0.5 nM human VEGF-121 binding to coated VEGFR1 (FIG. 5)
Protocol: (§1) To perform the competitive ELISA, the VEGFR1 was immobilized at a concentration of 2 μg/mL onto a Maxisorp 96-well plate (Thermo Scientific) overnight at 4° C., washed three times with PBS and blocked for 1 h at RT with ELISA Block Buffer (EBB: 0.2% BSA in PBST). […] The samples were incubated for 2 h at RT, and 50 μL transferred onto the VEGFR1-coated plate. After 2 h incubation, the plate was washed 3 times with PBST. 50 μL of streptavidin-HRP conjugate (Thermo Scientific) was added at a 1:5,000 dilution in EBB, and incubated for 1 h at RT. The plate was washed 5 times with PBST, and developed with 50 μL 3,3′,5,5′-Tetramethylbenzidine (TMB) substrate (GeneTex). After 5-15 min, the reactions were stopped by adding 50 μL of 2M H₂SO₄, and signal was measured at an absorbance of 450 nm.

[2] = target: T1, Human VEGF-121 (Acro Biosystems); assay: competitive ELISA: inhibition of 0.5 nM human VEGF-121 binding to coated VEGFR1 (FIG. 4)
Protocol: as §1

[3] = target: T2, biotinylated murine VEGF-164 (Acro …); assay: BLI, biotinylated VEGF on streptavidin tips, 1:1 global fit
Protocol: (§2) Binding characterization was performed using BLI (Satorius) at RT with a 1000 rpm flow-rate. Biotinylated human VEGF-165 (Acro Biosystem) was immobilized onto Streptavidin-coated tips at a concentration of 3 μg/mL for 60 sec in BLI buffer (0.1% BSA and 0.01% Tween-20 in PBS). After a 30 sec baseline, anti-VEGFA DotBodies were associated at 8 different concentrations, including a blank reference, in BLI buffer for 60 sec, followed by a 400 sec dissociation in BLI buffer. The background buffer signal was subtracted using the 0 nM concentration reference, and the kinetics of binding were calculated using a global fit following a 1:1 binding model, using BLI Analysis Software. The bivalent molecule 16A2.1×2 was also characterized as described here, but with a 600 sec dissociation. To characterize the binding of all the clones against murine VEGFA, the same procedure was employed, but the immobilized target was replaced with biotinylated murine VEGF-164 (Acro Biosystem).

[4] = target: T3, Biotinylated human VEGF-165 (Acro Biosystem) (human, UniProt P15692 207-395, biotinylated (site not stated)); assay: as above
T3 construct: Bought protein; also called human VEGFA
Protocol: as §2

Kd (VEGFA)	IC50 [1]	IC50 [2]	Kd [3]	koff [3]	kon [3]	Kd [4]	koff [4]	kon [4]	Binder
< 5 nM	1.8 nM	2.3 nM	14.6 nM	0.00173 s⁻¹	118000 M⁻¹ s⁻¹	3 nM	0.00032 s⁻¹	106000 M⁻¹ s⁻¹	anti-VEGFA DotBody 16C2.1 (VHH, Humanized, stabilized autonomous VH domain (single domain antibody, 'DotBody') derived from the trastuzumab VH) VHH: EVQLVESGGGLVQPGGSLRLSCAISGFSLAATDIDWVRQAPGKGLEWVARIFSPSDFTDYADSVKGRFTISADTSKNTVYLQMNSLRAEDTAVYYCGRPDTYAYNIFLDTPTYNALHYRGQGTLVTVSS
–	12.8 nM	–	15.3 nM	0.00128 s⁻¹	83600 M⁻¹ s⁻¹	3.37 nM	0.000363 s⁻¹	105000 M⁻¹ s⁻¹	anti-VEGFA DotBody 21A5.1 (VHH) VHH: EVQLVESGGGLVQPGGSLRLSCAISGFSLVETDIDWVRQAPGKGLEWVARIFLPSGSTYYADSVKGRFTISADTSKNTVYLQMNSLRAEDTAVYYCGSPDTYAYNIFLDTPAYKGLSYRGQGTLVTVSS
